Target: T1, PPARγ (UniProt P37238)
T1 sequence: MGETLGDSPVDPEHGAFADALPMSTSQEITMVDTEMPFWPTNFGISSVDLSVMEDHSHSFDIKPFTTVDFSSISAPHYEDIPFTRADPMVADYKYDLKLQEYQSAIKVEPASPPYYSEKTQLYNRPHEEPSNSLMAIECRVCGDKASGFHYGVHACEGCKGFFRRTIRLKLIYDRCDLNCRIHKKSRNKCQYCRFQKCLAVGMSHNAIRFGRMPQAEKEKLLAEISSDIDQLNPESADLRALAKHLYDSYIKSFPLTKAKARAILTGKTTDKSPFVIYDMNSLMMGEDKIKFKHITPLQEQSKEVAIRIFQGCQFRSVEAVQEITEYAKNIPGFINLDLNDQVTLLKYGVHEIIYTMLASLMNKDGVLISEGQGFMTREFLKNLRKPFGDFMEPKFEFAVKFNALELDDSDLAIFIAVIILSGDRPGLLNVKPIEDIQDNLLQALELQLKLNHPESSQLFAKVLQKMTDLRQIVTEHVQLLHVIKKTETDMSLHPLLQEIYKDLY
Assay: MITOMI
Settings: On-chip MITOMI, 1 h equilibration; buffer, salt, pH and temperature not in the material (as ref. 23)

Row | Sequence | Ka
1 | AAACTAGGTCAAAGGTCAAA (double strand) [PPRE] | 2.08e+06 M⁻¹

Target: T2, RXRα (UniProt P28700)
T2 sequence: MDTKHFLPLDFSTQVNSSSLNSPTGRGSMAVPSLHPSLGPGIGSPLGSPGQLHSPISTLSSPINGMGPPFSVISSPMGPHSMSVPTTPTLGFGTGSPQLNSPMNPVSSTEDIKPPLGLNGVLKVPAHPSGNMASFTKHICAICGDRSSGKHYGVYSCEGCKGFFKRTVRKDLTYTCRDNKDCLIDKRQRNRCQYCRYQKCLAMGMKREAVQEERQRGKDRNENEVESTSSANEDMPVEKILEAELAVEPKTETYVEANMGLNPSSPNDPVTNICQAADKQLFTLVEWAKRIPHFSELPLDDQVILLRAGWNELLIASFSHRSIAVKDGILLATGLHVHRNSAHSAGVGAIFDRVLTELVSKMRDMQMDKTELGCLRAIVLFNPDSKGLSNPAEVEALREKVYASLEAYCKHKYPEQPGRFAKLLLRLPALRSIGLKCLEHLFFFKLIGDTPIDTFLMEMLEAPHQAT
Assay: MITOMI
Settings: On-chip MITOMI, 1 h equilibration; buffer, salt, pH and temperature not in the material (as ref. 23)

Row | Sequence | Ka
2 | AAAATAGGTCAAAGGTCAAA (double strand) [PPRE C4A] | 1.64e+08 M⁻¹
3 | AAACAAGGTCAAAGGTCAAA (double strand) [PPRE T5A] | 7.87e+07 M⁻¹
4 | AAACCAGGTCAAAGGTCAAA (double strand) [PPRE T5C] | 3.82e+08 M⁻¹
5 | AAACGAGGTCAAAGGTCAAA (double strand) [PPRE T5G] | 9.82e+07 M⁻¹
6 | AAACTAAGTCAAAGGTCAAA (double strand) [PPRE G7A] | 7.36e+06 M⁻¹
7 | AAACTACGTCAAAGGTCAAA (double strand) [PPRE G7C] | 6.66e+06 M⁻¹
8 | AAACTAGATCAAAGGTCAAA (double strand) [PPRE G8A] | 4.91e+06 M⁻¹
9 | AAACTAGCTCAAAGGTCAAA (double strand) [PPRE G8C] | 980000 M⁻¹
10 | AAACTAGGACAAAGGTCAAA (double strand) [PPRE T9A] | 2.04e+06 M⁻¹
11 | AAACTAGGCCAAAGGTCAAA (double strand) [PPRE T9C] | 5.86e+06 M⁻¹
12 | AAACTAGGGCAAAGGTCAAA (double strand) [PPRE T9G] | 9.19e+06 M⁻¹
13 | AAACTAGGTAAAAGGTCAAA (double strand) [PPRE C10A] | 3.42e+06 M⁻¹
14 | AAACTAGGTCAAAAGTCAAA (double strand) [PPRE G14A] | 2.41e+06 M⁻¹
15 | AAACTAGGTCAAACGTCAAA (double strand) [PPRE G14C] | 860000 M⁻¹
16 | AAACTAGGTCAAAGATCAAA (double strand) [PPRE G15A] | 2.73e+06 M⁻¹
17 | AAACTAGGTCAAAGCTCAAA (double strand) [PPRE G15C] | 218000 M⁻¹
18 | AAACTAGGTCAAAGGACAAA (double strand) [PPRE T16A] | 906000 M⁻¹
19 | AAACTAGGTCAAAGGCCAAA (double strand) [PPRE T16C] | 3.59e+06 M⁻¹
20 | AAACTAGGTCAAAGGGCAAA (double strand) [PPRE T16G] | 1.33e+07 M⁻¹

Row | Sequence | Ka
21 | AAACTAGGTCAAAGGTAAAA (double strand) [PPRE C17A] | 4.39e+06 M⁻¹
22 | AAACTAGGTCAAAGGTCAAA (double strand) [PPRE] | 1.98e+08 M⁻¹
23 | AAACTAGGTCAAAGGTCAAC (double strand) [PPRE A20C] | 9.97e+08 M⁻¹
24 | AAACTAGGTCAAAGGTCAAG (double strand) [PPRE A20G] | 1e+09 M⁻¹
25 | AAACTAGGTCAAAGGTCAAT (double strand) [PPRE A20T] | 2.79e+08 M⁻¹
26 | AAACTAGGTCAAAGGTCACA (double strand) [PPRE A19C] | 1.22e+08 M⁻¹
27 | AAACTAGGTCAAAGGTCAGA (double strand) [PPRE A19G] | 1.1e+07 M⁻¹
28 | AAACTAGGTCAAAGGTCATA (double strand) [PPRE A19T] | 3.78e+07 M⁻¹
29 | AAACTAGGTCAAAGGTGAAA (double strand) [PPRE C17G] | 1.32e+07 M⁻¹
30 | AAACTAGGTCAAAGTTCAAA (double strand) [PPRE G15T] | 4.44e+07 M⁻¹
31 | AAACTAGGTCAAATGTCAAA (double strand) [PPRE G14T] | 5.14e+06 M⁻¹
32 | AAACTAGGTCAACGGTCAAA (double strand) [PPRE A13C] | 1.05e+06 M⁻¹
33 | AAACTAGGTCAAGGGTCAAA (double strand) [PPRE A13G] | 1.61e+07 M⁻¹
34 | AAACTAGGTCAATGGTCAAA (double strand) [PPRE A13T] | 398000 M⁻¹
35 | AAACTAGGTCACAGGTCAAA (double strand) [PPRE A12C] | 7.95e+06 M⁻¹
36 | AAACTAGGTCAGAGGTCAAA (double strand) [PPRE A12G] | 2.69e+07 M⁻¹
37 | AAACTAGGTCATAGGTCAAA (double strand) [PPRE A12T] | 4.38e+07 M⁻¹
38 | AAACTAGGTCCAAGGTCAAA (double strand) [PPRE A11C] | 368000 M⁻¹
39 | AAACTAGGTCGAAGGTCAAA (double strand) [PPRE A11G] | 5.54e+06 M⁻¹

Row | Sequence | Ka
40 | AAACTAGGTCTAAGGTCAAA (double strand) [PPRE A11T] | 802000 M⁻¹
41 | AAACTAGGTGAAAGGTCAAA (double strand) [PPRE C10G] | 2.66e+07 M⁻¹
42 | AAACTAGGTTAAAGGTCAAA (double strand) [PPRE C10T] | 1.7e+07 M⁻¹
43 | AAACTAGTTCAAAGGTCAAA (double strand) [PPRE G8T] | 2.54e+07 M⁻¹
44 | AAACTATGTCAAAGGTCAAA (double strand) [PPRE G7T] | 9.75e+06 M⁻¹
45 | AAACTCGGTCAAAGGTCAAA (double strand) [PPRE A6C] | 8.8e+06 M⁻¹
46 | AAACTGGGTCAAAGGTCAAA (double strand) [PPRE A6G] | 1.73e+08 M⁻¹
47 | AAACTTGGTCAAAGGTCAAA (double strand) [PPRE A6T] | 4.68e+06 M⁻¹
48 | AAAGTAGGTCAAAGGTCAAA (double strand) [PPRE C4G] | 1.38e+08 M⁻¹
49 | AAATTAGGTCAAAGGTCAAA (double strand) [PPRE C4T] | 2.59e+08 M⁻¹
50 | AACCTAGGTCAAAGGTCAAA (double strand) [PPRE A3C] | 1.25e+08 M⁻¹
51 | AAGCTAGGTCAAAGGTCAAA (double strand) [PPRE A3G] | 5.27e+07 M⁻¹
52 | AATCTAGGTCAAAGGTCAAA (double strand) [PPRE A3T] | 1.98e+08 M⁻¹
53 | ACACTAGGTCAAAGGTCAAA (double strand) [PPRE A2C] | 4.33e+07 M⁻¹
54 | AGACTAGGTCAAAGGTCAAA (double strand) [PPRE A2G] | 2.05e+08 M⁻¹
55 | ATACTAGGTCAAAGGTCAAA (double strand) [PPRE A2T] | 1.45e+08 M⁻¹
56 | CAACTAGGTCAAAGGTCAAA (double strand) [PPRE A1C] | 1.17e+08 M⁻¹
57 | GAACTAGGTCAAAGGTCAAA (double strand) [PPRE A1G] | 1e+08 M⁻¹
58 | TAACTAGGTCAAAGGTCAAA (double strand) [PPRE A1T] | 1.01e+08 M⁻¹

Target: PPARγ;RXRα (Mus musculus?;Mus musculus?) (UniProt P37238+P28700)
Assay: MITOMI
Settings: KDoD from cooperative model; On-chip MITOMI, 1 h equilibration; buffer, salt, pH and temperature not in the material (as ref. 23)

Row | Sequence | Ka
59 | AAACTAGGTCAAAGGTCAAA (double strand) [PPRE] | 1.46e+22 M-2
